Patent US20170145086A1 (VISTERRA, published 2017)
Where “and” joins values, the source holds several entries; their conditions need not be identical. Equal values may be shown once. Values belong to the binder of their own block, whether it stands above or below them.

What was measured:
[1] = molecular target: T1, HA-GCN4 hAPRIL (amino acid residues 105-250) (human, UniProt O75888 105-250); assay: ELISA on trimeric (GCN4-stabilised) human APRIL
T1 construct: Bought (R&D Systems); also called HA-tagged GCN4 human APRIL; HA-GCN4-huAPRIL; not shown: N-terminal HA tag; GCN4 isoleucine zipper oligomerization domain
T1 sequence: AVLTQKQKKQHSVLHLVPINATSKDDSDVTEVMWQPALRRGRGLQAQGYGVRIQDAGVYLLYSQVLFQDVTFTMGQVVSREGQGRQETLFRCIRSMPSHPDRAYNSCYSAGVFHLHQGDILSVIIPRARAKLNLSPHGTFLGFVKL
Text: APRIL trimer was stabilized by the N-terminal fusion of APRIL with an isoleucine zipper (GCN4) oligomerization domain Binding of APRIL to human TACI-Fc is shown for comparative purposes.

[2] = molecular target: T1, HA-GCN4 hAPRIL (amino acid residues …); assay: blocking ELISA; blocked: human APRIL binding to human BCMA-Fc; set-up: concentration or dose not given beside the values
Protocol: (§1) Recombinant TACI-Fc or BCMA-Fc was coated on 96 well plates in 0.1 M carbonate-bicarbonate buffer (pH 9.6), overnight at 4° C. Plates were washed three times with 1×PBST (PBS+0.025% Tween 20) followed by blocking with 1% BSA in 1×PBS, 37° C. for 1 hour. All subsequent wash steps were carried out with 1×PBST. To assess antibody blocking, either 15 ng/mL or 50 ng/mL HA-GCN4-huAPRIL was preincubated with varying antibody concentrations ranging from 0.03-30 μg/mL in binding buffer comprised of 1% BSA and 0.025% Tween-20 in 1×PBS. Preincubation was carried out at 30° C. for 1 hour with mixing. Antibody-APRIL premix with 50 ng/mL APRIL or 15 ng/mL APRIL was then added to TACI-Fc coated or BCMA-Fc coated plates, respectively, and incubated for an additional hour at 30° C. HA-tagged APRIL binding to either receptor was quantified using a goat polyclonal anti-HA tag-HRP antibody (Abcam) added at a 1:10000 dilution followed by colorimetric development using 100 μl/well of freshly prepared TMB substrate (KPL) carried out for up to 30 minutes at room temperature before quenching enzymatic reaction by the addition of 1N sulfuric acid. ELISA signal was quantified by absorbance at 450 nm. ELISA data was analyzed by non-linear regression. IC₅₀ values were calculated based on a 4 parameter fit of antibody titration curves. […] Non-blocking antibodies Aprly-1 or Aprly-5 (Enzo Biosciences) were used as negative controls. Mouse specific, blocking antibody aprily-1-1 (Adipogen) was generally used as a positive control in experiments using mouse APRIL (HA-GCN4-mAPRIL).

[3] = molecular target: T1, HA-GCN4 hAPRIL (amino acid residues …); assay: blocking ELISA; blocked: human APRIL binding to human TACI-Fc; set-up: concentration or dose not given beside the values
Protocol: as §1

[4] = molecular target: T1, HA-GCN4 hAPRIL (amino acid residues …); assay: indirect ELISA on HA-GCN4 human APRIL, 3-parameter fit
Protocol: FIG. 5 depicts the binding of anti-APRIL antibodies to human APRIL. Relative binding of select anti-APRIL antibodies was measured by indirect ELISA. Select antibodies based on prior hybridoma screening were recombinantly produced (based on immunoglubin VH and VL gene sequencing) as described. HA-tagged GCN4 human APRIL R&D Systems was used as source of APRIL. Binding data was analyzed by non-linear regression using a three parameter fit.
(§2) Purified antibodies were further characterized for APRIL binding, APRIL species cross reactivity (human APRIL vs. mouse APRIL), and receptor blocking activity using TACI-Fc. For binding, an APRIL-based indirect ELISA was used to determine by first approximation the relative affinity of purified anti-APRIL antibodies to either human APRIL or mouse APRIL. ELISA method was as generally described above. […] Blocking and wash steps were completed as described. Binding of anti-APRIL antibodies to APRIL was quantified using an 8 point dilution of test antibody that spanned over a four log scale. Antibody binding to APRIL was detected using a rabbit anti-mouse IgG (H+L)-HRP conjugate (Jackson ImmunoResearch Laboratories). Antibody binding data was analyzed by non-linear regression analysis using a 3 parameter fit to determine max binding and apparent EC₅₀ values. […] Mouse specific antibody Apry-1-1 (Adipogen) was likewise used for quantification of antibody binding to mouse APRIL.

[5] = molecular target: T1, HA-GCN4 hAPRIL (amino acid residues …); assay: indirect ELISA on coated HA-GCN4 human APRIL; EC50 from non-linear regression
Text: as §2

[6] = molecular target: T1, HA-GCN4 hAPRIL (amino acid residues …); assay: blocking ELISA, 4-parameter fit; blocked: human APRIL binding to human TACI-Fc
Protocol: as §1

[7] = molecular target: T1, HA-GCN4 hAPRIL (amino acid residues …); assay: blocking ELISA; blocked: human APRIL binding to BCMA-Fc
Protocol: as §1
Assay is based on receptor blocking ELISA using recombinant human APRIL (R&D Systems) and either human TACI-Fc (FIG. 30A) or BCMA-Fc (FIG. 30B).

[8] = molecular target: T1, HA-GCN4 hAPRIL (amino acid residues …); assay: blocking ELISA; blocked: human APRIL binding to TACI-Fc
[9] = molecular target: T1, HA-GCN4 hAPRIL (amino acid residues …); assay: indirect ELISA on human APRIL
[10] = molecular target: T1, HA-GCN4 hAPRIL (amino acid residues …); assay: competition ELISA: antibody titrated against human APRIL, read-out APRIL bound to coated human TACI-Fc
Protocol: Mouse specific antibody Apry-1-1 (Adipogen) was likewise used for quantification of antibody binding to mouse APRIL.
Recombinant TACI-Fc or BCMA-Fc was coated on 96 well plates in 0.1 M carbonate-bicarbonate buffer (pH 9.6), overnight at 4° C. Plates were washed three times with 1×PBST (PBS+0.025% Tween 20) followed by blocking with 1% BSA in 1×PBS, 37° C. for 1 hour. All subsequent wash steps were carried out with 1×PBST. To assess antibody blocking, either 15 ng/mL or 50 ng/mL HA-GCN4-huAPRIL was preincubated with varying antibody concentrations ranging from 0.03-30 μg/mL in binding buffer comprised of 1% BSA and 0.025% Tween-20 in 1×PBS. Preincubation was carried out at 30° C. for 1 hour with mixing. […] HA-tagged APRIL binding to either receptor was quantified using a goat polyclonal anti-HA tag-HRP antibody (Abcam) added at a 1:10000 dilution followed by colorimetric development using 100 μl/well of freshly prepared TMB substrate (KPL) carried out for up to 30 minutes at room temperature before quenching enzymatic reaction by the addition of 1N sulfuric acid. ELISA signal was quantified by absorbance at 450 nm. ELISA data was analyzed by non-linear regression. IC₅₀ values were calculated based on a 4 parameter fit of antibody titration curves. […]

[11] = molecular target: T1, HA-GCN4 hAPRIL (amino acid residues …); assay: blocking ELISA, 4-parameter fit; blocked: human APRIL binding to human BCMA-Fc
Protocol: as §1

[12] = molecular target: T2, HA-GCN4 mAPRIL (amino acid residues 96-241) (mouse, UniProt Q9D777 96-241, Assembles as a homotrimer through the GCN4 zipper; one protomer is given.); assay: blocking ELISA; blocked: mouse APRIL binding to human BCMA-Fc
T2 construct: Bought (R&D Systems); also called HA-tagged mouse APRIL (R&D Systems); recombinant mouse APRIL; not shown: N-terminal HA tag and GCN4 isoleucine-zipper trimerisation domain, with any linker, of the bought R&D Systems protein
T2 sequence: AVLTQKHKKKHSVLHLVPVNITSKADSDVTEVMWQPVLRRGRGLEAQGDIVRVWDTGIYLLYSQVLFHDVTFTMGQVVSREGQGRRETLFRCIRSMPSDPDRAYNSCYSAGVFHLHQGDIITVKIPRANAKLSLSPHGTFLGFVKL
Protocol: Recombinant TACI-Fc or BCMA-Fc was coated on 96 well plates in 0.1 M carbonate-bicarbonate buffer (pH 9.6), overnight at 4° C. Plates were washed three times with 1×PBST (PBS+0.025% Tween 20) followed by blocking with 1% BSA in 1×PBS, 37° C. for 1 hour. All subsequent wash steps were carried out with 1×PBST. To assess antibody blocking, either 15 ng/mL or 50 ng/mL HA-GCN4-huAPRIL was preincubated with varying antibody concentrations ranging from 0.03-30 μg/mL in binding buffer comprised of 1% BSA and 0.025% Tween-20 in 1×PBS. Preincubation was carried out at 30° C. for 1 hour with mixing. Antibody-APRIL premix with 50 ng/mL APRIL or 15 ng/mL APRIL was then added to TACI-Fc coated or BCMA-Fc coated plates, respectively, and incubated for an additional hour at 30° C. HA-tagged APRIL binding to either receptor was quantified using a goat polyclonal anti-HA tag-HRP antibody (Abcam) added at a 1:10000 dilution followed by colorimetric development using 100 μl/well of freshly prepared TMB substrate (KPL) carried out for up to 30 minutes at room temperature before quenching enzymatic reaction by the addition of 1N sulfuric acid. ELISA signal was quantified by absorbance at 450 nm. ELISA data was analyzed by non-linear regression. IC₅₀ values were calculated based on a 4 parameter fit of antibody titration curves. […]

[13] = molecular target: T1, HA-GCN4 hAPRIL (amino acid residues …); assay: cell-based or functional assay

B1: HuTACI-Fc-001 (Fc fusion, human, UniProt O14836 29-110, looked up)
chain: VAMRSCPEEQYWDPLLGTCMSCKTICNHQSQRTCAAFCRSLSCRKEQGKFYDHLLRDCISCASICGQHPKQCAYFCENKLRS
notes: range 29-110; also called human TACI-Fc; recombinant TACI-Fc; not shown: Fc portion of human IgG1 beginning at position E98 in CH1
EC50 [1]: 0.103 nM

B2: monoclonal antibody 2621 (antibody, mouse IgG2, V domains shown)
VH: EVQLQQSGAELVRPGSSVKMSCKTSGYTFTSYGINWVKQRPGQGLEWIGYIYIGNGYAEYNERFKGKATLTSDTSSSTAYMQLSSLTSEDSAIYFCALYYPWFTYWGQGTLVTVSA
VL: DIQMTQSPASLSASVGDSVTITCRASENIYSYLAWYQQKQGKSPQLLVYNAKTLAEGVPSRFSGSGSGTQFSLKINSLQPEDFGNYYCQHHYDTPFTFGGGTKLEIK
% Inhibition [2]: 0%
% Inhibition [3]: 79%
EC50 [4]: 0.0143 µg/mL and 0.097 nM
EC50 [5]: < 0.2 nM
IC50 [6]: 1 nM

B3: monoclonal antibody 2419-1406 (antibody, V domains shown)
VH: QVQLVQSGAEVKKPGASVKVSCKASGYTFTDYTIHWVRQATGQGLEWMGWIYPLRGSINYAQKFQGRVTMTADKSISTVYMELSSLRSEDTAVYFCARHGAYYSNAFDYWGQGTLVTVSS
VL: EIVMTQSPATLSVSPGERATLSCRASESVDNDGIRFLHWYQQKPGQAPRLLIYRASTRATGIPARFSGSGSRTEFTLTISSLQSEDFAVYYCQQSNKDPYTFGGGTKVEIK
IC50 [7]: 0.11 nM
Relative Activity (normalised to 2419) [7]: 0.47
IC50 [8]: 0.24 nM
Relative Activity (normalised to 2419) [8]: 0.88
EC50 [1]: 0.0384 nM
EC50 [9]: 3.34 pM

B7: monoclonal antibody 2922 (antibody, mouse IgG2, V domains shown)
VH: QVQLHQSGPELVKPGASVKLSCKTSGYTFTSYDVFWVKQRPGQGLEWIGWIYPRDSSTKYNEKFKGKATLTVDTSSSTAYMELHSLTSEDSAVYFCAKEGYDYDKRGFDYWGQGTTLTVSS
VL: DIVLTQSPASLAVSLGQRAIISCKASQSVSFAGTNLMHWYQQRPGQQPKLLIYRASNLEPGVPTRFSGSGSRTDFTLNIHPVEEDDAATYYCQQSREYPWTFGGGTKLEIK
% Inhibition [2]: 97%
IC50 [10]: > 10 nM
% Inhibition [3]: 97%
IC50 [11]: 22 nM
EC50 [4]: 0.0713 µg/mL and 0.482 nM
IC50 [6]: 31.6 nM

The next lines start with the values.

% Inhibition [2]: < 10%
IC50 [10]: > 10 nM
% Inhibition [3]: 52%
EC50 [4]: 0.281 µg/mL and 1.9 nM
EC50 [5]: > 1 nM
IC50 [6]: 113 nM
B4: monoclonal antibody 3125 (antibody, mouse IgG2, V domains shown)
VH: QVQLQQSGAELVRPGASVTLSCKASGYTFTDYEMHWVKQTPVHGLEWIGAIDPETGGTAYNQRFKGKAILTTDKSSITAYMELRSLTSEDSAVYYCTRWNDGDYWGQGTTLTVSS
VL: DVVMTQTPLSLSVTIGQPASISCKSSQSLLYSNGKTYLNWFQQRPGQSPKRLMYQVSKLDPGIPDRFSGSGSETDFTLKISRVEAEDLGLYYCLQGTYYPYTFGGGTKLEIK

% Inhibition [2]: 48%
% Inhibition [3]: 86%
IC50 [11]: 0.85 nM
IC50 (read off the curve) [12]: ~0.3 µg/mL
EC50 [4]: 0.0534 µg/mL and 0.361 nM
IC50 [6]: 4.05 nM
B5: monoclonal antibody 3525 (antibody, mouse IgG2, V domains shown)
VH: QVQLQQSGAELVRPGASVKLSCKASGYTFTDHEMHWVRQTPVHGLEWIGVIDPDTGDTTYNQKFKGKATLTADKSSSTAYMDLRSLTSEDSAVFYCTRWTGGDYWGHGTTLTVSS
VL: B4 VL

IC50 (inhibition of APRIL-mediated BCMA NFκB signaling) [13]: ~0.38 nM
IC50 (inhibition of APRIL-mediated TACI NFκB signaling) [13]: ~1.02 nM
IC50 [7]: 0.1 nM
Relative Activity (normalised to 2419) [7]: 0.41
IC50 [8]: 0.26 nM
Relative Activity (normalised to 2419) [8]: 0.93
EC50 [1]: 0.0135 nM
EC50 [9]: 1.28 pM
B6: monoclonal antibody 4035-062 (antibody, IgG1, V domains shown)
VH: QVQLQESGPGLVKPSETLSLTCTVSGFSLTIYDVHWVRQPPGKGLEWIGVIWSDGSTDYNPSLKSRVTISKDTSKNQVSLKLSSVTAADTAVYYCARNWVDQAWFAYWGQGTLVTVSS
VL: DIQMTQSPSSLSASVGDRVTITCRASKNIYSYLAWYQQKPGKAPKLLVYNAKTLPEGVPSRFSGSGSGTDFTLTISSLQPEDFATYYCQHHYGTPLTFGQGTKLEIK
